In paper PMC12534491:

Target: T1, Tat peptide (arginine-rich motif) (HIV-1, UniProt P04608)
T1 chain: RKKRRQRRRPPQG
Test: in-cell NMR

**Q.** Does GGGAGCUUGAUCCCGGAAACGGUCGAUCGCUCCC (structured_RNA) [anti-Tat RNA aptamer] bind?
**A.** Result: binds
